According to US8697655B2, “Method of selecting polypeptide sequence, and metal oxide or silicon-containing compound binding peptide and use thereof” (Riken, priority 2010, dated 2014):

Tests used:
[1] = test system: NRK-49F fibroblasts; assay: NRK-49F fibroblast proliferation on sTOP1-EGF immobilized TiO2 plate; format: cell-based; settings: about 5.0 ng immobilized; ca. 5,000 cells seeded; 6 days; 1% FBS DMEM; vs TiO2 plate with EGF alone added
Method: First, in accordance with a scheme in the left in FIG. 7-2, sTOP1-EGF solution (about 5.0 ng, 12 μl in TBS, pH 7.5) was added onto the TiO2 plate and a washing operation (TBS-T buffer, pH 7.5) was then repeated 3 times. And, by blocking with 0.1% BSA solution, a “sTOP1-EGF immobilized TiO2 plate” was prepared. And then, ca. 5,000 NRK-49F fibroblasts were seeded on the sTOP1-EGF immobilized TiO2 plate, cultured for 6 days (1% FBS containing DMEM medium was used), and subjected to microscopy (cells were not stained).

[2] = Binding of P-EGFs to TiO2 plate, anti-EGF antibody chemiluminescence detection; settings: about 2.0 ng, 10 μl in TBS pH 7.5; washed 3 times with TBS-T; anti-human EGF antibody and HRP secondary
Method: Subsequently, in accordance with a scheme in the left in FIG. 4-2, various P-EGF solutions (about 2.0 ng, 10 μl in TBS, pH 7.5) were added on a TiO2 plate (a plate produced by vapor deposition of titanium on the surface of a glass plate with a diameter of 15 mm and a thickness of 0.6 mm (manufactured by Matsunami Glass Ind., Ltd.) (the vapor deposition step was requested to Osaka Vacuum Industrial Co., Ltd.) was used); and a washing operation (TBS-T buffer, pH 7.5) was repeated 3 times. And, after blocking with 0.1% BSA solution, an anti-human EGF antibody was added as a primary antibody. Furthermore, after the washing operation (TBS-T buffer, pH 7.5) was repeated 3 times, an anti-mouse IgG antibody HRP conjugate was added as a secondary antibody. At the end, using a luminescent phenomenon by a reaction between a chemiluminescence reagent and HRP as an index, the presence of protein immobilized on the TiO2 plate was detected. […]
First, in accordance with a scheme in the left in FIG. 7-1, various P-EGF solutions (about 2.0 ng, 10 μl in TBS, pH 7.5) were added on a TiO2 plate and a washing operation (TBS-T buffer, pH 7.5) was repeated 3 times. […] At the end, using a luminescent phenomenon by a reaction between a chemiluminescence reagent and HRP as an index, the presence of protein immobilized on the TiO2 plate was detected.

B1: MQAYYNYYSNYYGRSYSSDGQLGQFEGNSDSECPLSHDGYCLHDGVCMYI EALDKYACNCVVGYIGERCQYRDLKWWELR (peptide)
chain: MQAYYNYYSNYYGRSYSSDGQLGQFEGNSDSECPLSHDGYCLHDGVCMYIEALDKYACNCVVGYIGERCQYRDLKWWELR
notes: chemically synthesized TOP1-EGF composed of 80 amino acids, made by peptide solid phase method
- Proliferation of NRK-49F fibroblasts on the immobilized TiO2 plate (microscopy) [1]: markedly proliferated
- TiO2 plate binding (luminescent phenomenon of protein immobilized on the plate) [2]: the luminescent phenomenon could be confirmed
